These results are taken from patent US20120058906A1 (published 2012).

In assay [1] the target is T1, rHuman Erythropoietin R/Fc Chimera, CF (R&D Systems Cat#963-ER) (human, UniProt P19235 25-250).
T1 construct: Bought Fc chimera; also called EPO R/Fc; Epo R; Fc part of the bought chimera not given
T1 sequence: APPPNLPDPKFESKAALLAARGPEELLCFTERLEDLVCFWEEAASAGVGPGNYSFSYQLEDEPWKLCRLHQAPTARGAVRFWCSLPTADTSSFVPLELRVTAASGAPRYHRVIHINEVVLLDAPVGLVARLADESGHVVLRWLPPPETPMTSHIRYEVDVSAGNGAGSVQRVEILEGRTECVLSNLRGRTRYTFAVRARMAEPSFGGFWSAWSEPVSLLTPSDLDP
The assay can be described thus: ECL (MSD Multi-Spot) binding assay, antigen spotted on plate; Fab 480 nM; blank spot 362.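 Also: blank spot per well as comparator with Hit at signal to blank ratio of 4 or more.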

In assay [2] the target is T2, rHuman P-Cadherin/Fc Chimera, CF (R&D Systems Cat#861-PC) (human, UniProt P22223 108-654).
T2 construct: Bought Fc chimera; also called CDH3; Fc part of the bought chimera not given
The assay is described as above.

Assay [3] deals with T3, rHuman IGF-1 sR (IGF-1 sR), CF (R&D Systems Cat#391-GR) (human, UniProt P08069 31-932).
T3 construct: Purchased soluble receptor; also called insulin-like growth factor-1 soluble receptor; IGF-R1
Put plainly: MSD ECL multi-spot plate, antigen immobilized; Fab 40 nM; blank spot 502.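 Also: blank spot per well as comparator with Hit at signal to blank ratio of 4 or more.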

Assay [4] addresses T4, rHuman P-Cadherin/Fc Chimera, CF (R&D Systems Cat#861-PC) (human, UniProt P22223 108-654).
T4 construct: Purchased Fc chimera; not shown: Fc portion of the purchased chimera
Described as above.

For assay [5], the target named is T5, rHuman Erythropoietin R/Fc Chimera, CF (R&D Systems Cat#963-ER) (human, UniProt P19235 25-250).
T5 construct: Purchased Fc chimera; also called EPO R/Fc; Epo R; not shown: Fc portion of the purchased chimera
T5 sequence: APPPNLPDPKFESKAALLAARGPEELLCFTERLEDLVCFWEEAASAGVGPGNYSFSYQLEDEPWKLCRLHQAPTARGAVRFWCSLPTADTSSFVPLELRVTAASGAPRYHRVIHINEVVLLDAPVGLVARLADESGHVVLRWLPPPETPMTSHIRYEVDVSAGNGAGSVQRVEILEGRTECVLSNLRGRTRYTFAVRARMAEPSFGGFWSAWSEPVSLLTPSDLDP
The assay is described as above.

In assay [6] the target is T6, Recombinant Human DLL4 (R&D Systems Cat#1506-D4/CF) (human, UniProt Q9NR61 27-524).
T6 construct: Purchased recombinant protein; also called delta-like protein 4
The assay is described as above.

The target of assay [7] is T7, rHuman ErbB2/Fc Chimera, CF (R&D Systems Cat#1129-ER) (human, UniProt P04626 23-652).
T7 construct: Purchased Fc chimera; also called HER2/neu; not shown: Fc portion of the purchased chimera
The assay is described as above.

In assay [8] the target is T8, rHuman EGF R/Fc Chimera, CF (R&D Systems Cat#344-ER) (human, UniProt P00533 25-645).
T8 construct: Purchased Fc chimera; not shown: Fc portion of the purchased chimera
The description is as above.

Assay [9] concerns the target T9, rHuman HGF R/c-MET/Fc Chimera, CF (R&D Systems Cat#358-MT/CF) (human, UniProt P08581 25-932).
T9 construct: Purchased Fc chimera; also called HGF R/Fc; not shown: Fc portion of the purchased chimera
Described as above.

Assay [10] addresses T10, rHuman Notch-1/Fc Chimera, CF (R&D Systems Cat#3647-TK) (human, UniProt P46531 19-526).
T10 construct: Purchased Fc chimera; not shown: Fc portion of the purchased chimera
The description is as above.

Assay [11] has as its target T11, rHuman CD44/Fc Chimera, CF (R&D Systems Cat#3660-CD) (human, UniProt P16070 21-220).
T11 construct: Purchased Fc chimera; not shown: Fc portion of the purchased chimera
Described as above.

For assay [12], the target named is T12, rHuman IGF-1 sR (insulin-like growth factor-1 soluble receptor), CF (R&D Systems Cat#391-GR) (human, UniProt P08069 31-932).
T12 construct: Bought soluble receptor; also called IGF-R1
Put plainly: ECL (MSD multi-spot), antigen on plate, Fab 5 nM.

The target of assay [13] is T13, rHuman P-Cadherin/Fc Chimera, CF (R&D Systems Cat#861-PC) (human, UniProt P22223 108-654).
T13 construct: Bought Fc chimera; also called CDH3; not shown: Fc of the bought chimera
The assay can be described thus: ECL (MSD multi-spot), antigen on plate, Fab 5 nM.

The target in assay [14] is T14, rHuman Erythropoietin R/Fc Chimera, CF (R&D Systems Cat#963-ER) (human, UniProt P19235 25-250).
T14 construct: Bought Fc chimera; also called EPO R/Fc; Epo R; not shown: Fc of the bought chimera
T14 sequence: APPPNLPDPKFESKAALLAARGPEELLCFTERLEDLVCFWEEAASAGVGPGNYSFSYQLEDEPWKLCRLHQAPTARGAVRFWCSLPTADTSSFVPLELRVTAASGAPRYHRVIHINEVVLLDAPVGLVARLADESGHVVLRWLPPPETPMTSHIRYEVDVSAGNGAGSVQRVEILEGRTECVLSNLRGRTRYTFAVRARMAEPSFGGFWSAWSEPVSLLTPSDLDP
Put plainly: ECL (MSD multi-spot), antigen on plate, Fab 5 nM.

Assay [15] concerns the target T15, Recombinant Human DLL4 (R&D Systems Cat#1506-D4/CF) (human, UniProt Q9NR61 27-524).
T15 construct: Bought recombinant protein; also called delta-like protein 4
The assay can be described thus: ECL (MSD multi-spot), antigen on plate, Fab 5 nM.

Assay [16] has as its target T16, rHuman ErbB2/Fc Chimera, CF (R&D Systems Cat#1129-ER) (human, UniProt P04626 23-652).
T16 construct: Bought Fc chimera; also called HER2/neu; not shown: Fc of the bought chimera
The assay can be described thus: ECL (MSD multi-spot), antigen on plate, Fab 5 nM.

Assay [17] deals with T17, rHuman EGF R/Fc Chimera, CF (R&D Systems Cat#344-ER) (human, UniProt P00533 25-645).
T17 construct: Bought Fc chimera; also called ErbB-1; not shown: Fc of the bought chimera
Put plainly: ECL (MSD multi-spot), antigen on plate, Fab 5 nM.

Assay [18] concerns the target T18, rHuman HGF R/c-MET/Fc Chimera, CF (R&D Systems Cat#358-MT/CF) (human, UniProt P08581 25-932).
T18 construct: Bought Fc chimera; also called HGF R/Fc; not shown: Fc of the bought chimera
The assay can be described thus: ECL (MSD multi-spot), antigen on plate, Fab 5 nM.

In assay [19] the target is T19, rHuman CD44/Fc Chimera, CF (R&D Systems Cat#3660-CD) (human, UniProt P16070 21-220).
T19 construct: Bought Fc chimera; not shown: Fc of the bought chimera
The assay can be described thus: ECL (MSD multi-spot), antigen on plate, Fab 5 nM.

B1: Fab VH6-1_IGHD3-3*01_IGHJ4*01 & V4-3_IGLJ4*01 (Fab, V domains shown)
VH: QVQLQQSGPGLVKPSQTLSLTCAISGDSVSSNSAAWNWIRQSPSRGLEWLGRTYYRSKWYNDYAVSVKSRITINPDTSKNQFSLQLNSVTPEDTAVYYCAREYYDFWSGYYTDYFDYWGQGTLVTVSS
VL: QPVLTQPTSLSASPGASARLTCTLRSGINLGSYRIFWYQQKPESPPRYLLSYYSDSSKHQGSGVPSRFSGSKDASSNAGILVISGLQSEDEADYYCMIWHSSASFVFGGGTQLIIL
notes: Tested as a Fab made in E. coli; also called IGHV6-1*01
In the case of B1, the ECL signal in assay [1] came to 621; in assay [2], 596.

B2: Fab VH5-51_IGHD5-18*01>3_IGHJ4*01_G100R & V3-4_IGLJ1*01 (Fab, V domains shown)
VH: EVQLVQSGAEVKKPGESLKISCKGSGYSFTSYWIGWVRQMPGKGLEWMGIIYPGDSDTRYSPSFQGQVTISADKSISTAYLQWSSLKASDTAMYYCARRRYSYGYDYFDYWGQGTLVTVSS
VL: QTVVTQEPSFSVSPGGTVTLTCGLSSGSVSTSYYPSWYQQTPGQAPRTLIYSTNTRSSGVPDRFSGSILGNKAALTITGAQADDESDYYCVLYMGSGISYVFGTGTKVTVL
notes: It was expressed as a Fab: CH1 with tags from Plasmid A and lambda CL from Plasmid E; also called Fab No. 23
For the molecule B2, the ECL signal in assay [3] is 1240 ECL signal; in assay [4] it was 1020 ECL signal; in assay [5], 994 ECL signal; in assay [6], 19500 ECL signal; in [7], 1420 ECL signal; in assay [8], 1110 ECL signal. In addition, the ECL signal was 1230 ECL signal in assay [9], 1010 ECL signal in assay [10] and 824 ECL signal in [11].

B3: Fab VH1-46_IGHD6-6*01_IGHJ1*01_S102A_S103P_S104Y_H111Y & L6_IGKJ1*01 (Fab, V domains shown)
VH: QVQLVQSGAEVKKPGASVKVSCKASGYTFTSYYMHWVRQAPGQGLEWMGIINPSGGSTSYAQKFQGRVTMTRDTSTSTVYMELSSLRSEDTAVYYCAREEYAPYSAEYFQYWGQGTLVTVSS
VL: not shown
notes: Fab made in E. coli; The heavy chain also carries CH1 with Flag and His tags from Plasmid A, and the light chain carries kappa CL from Plasmid C
As to B3, the ECL signal in assay [12] was 3030 ECL signal; in [13], 4160 ECL signal; in assay [14], 3580 ECL signal; in assay [15], 73400 ECL signal; in [16] it was 2860 ECL signal; in assay [17] it was 2980 ECL signal. Also, the values for the ECL signal in assay [18] and in [19] were 3100 ECL signal and 2760 ECL signal, respectively.
